In US20230135471A1, “UBIQUITIN VARIANTS WITH IMPROVED AFFINITY FOR 53BP1” (Integrated DNA Technologies, Inc., priority 2021, published 2023):

Key:
[1] = target: 53BP1 (amino acids 1484-1603) fused to MBP (Homo sapiens, UniProt Q12888); assay: Biolayer interferometry (BLI) of purified His-tagged Ubvs, 1:1 binding model global fit; details: second experiment, longer association (360 seconds; i53 90 seconds)
Experimental: In order to assess the effect of mutations identified from the two-hybrid screen on the affinity of the Ubvs for 53BP1, Ubvs consisting of the i53 sequence with an N-terminal His tag and short flexible linker plus individual or combinations of screen-identified mutations were purified from E. coli (Table 3). Biolayer interferometry was used to measure the affinity of the purified proteins. Briefly, a purified Ubv was diluted in reaction buffer (1×PBS pH7.4, 0.1 mg/mL BSA, 0.001% Tween 20) to 2 ug/mL. Purified 53BP1 (amino acids 1484-1603) fused to MBP was diluted in reaction buffer to between 20 μM and 10 nM (Table 3, Table 4)). For each Ubv, 8 Ni-NTA sensor tips were hydrated and then loaded with the 2 ug/ml of a Ubv for 30 seconds. Sensor tips were then incubated in reaction buffer for 45 seconds to obtain a baseline. Tips were then moved into either empty buffer or seven different concentrations of purified 53BP1 and the association was measured. Tips were then moved back into reaction buffer and the dissociation was measured. Kon, Koff, and Kd were calculated using a 1:1 binding model using a global fit (Table 4).
A second experiment was performed using CM1 and CM7 using a longer association time (360 seconds) to allow binding to closer approach equilibrium. The BLI response vs 53BP1 fragment concentration was plotted in prism to calculate the Kd using a one site-specific binding nonlinear fit model. An i53 response was plotted on the same graph however the association time used (90 seconds) was shorter due to needing a shorter time to reach equilibrium because of the fast off rate of i53 (FIG. 5B, FIG. 5C, Table 4).

[2] = tested on: HDR at a Cas9 cut site in CLTA in K562 cells; assay: HDR insertion of 729 bp GFP coding sequence at CLTA, measured by ONT sequencing; type: cell-based; details: dsDNA donor (large insert), Ubv 37.5 μM, IDT-E 1 μM for 24 hours
Experimental: FIG. 12A illustrates use of a ubiquitin variant with high affinity for 53BP1 provides an additional benefit to HDR over the use of a DNA-PK inhibitor alone. […] Ubiquitin variants were delivered alongside 2 μM Cas9 RNP at 37.5 μM final concentration. IDT-E was added to media post nucleofection for 24 hours at 1 μM final dose. Double stranded DNA donor with 200 bp homology arms was delivered at 1.5 μg per nucleofection.
(§1) We tested if our ubiquitin variants provided a further benefit over inhibition of common NHEJ pathway targets alone by using the DNA-PK inhibitor IDT enhancer (IDT-E) in combination with CM1 in the context of both large and small inserts (Table 7). […] Without limiting the claimed subject matter to a particular mode or mechanism of action, we hypothesize that our ubiquitin variants targeting 53BP1 will be a useful in facilitating increased HIDR when used in combination with other inhibitors of NHEJ pathway components.

[3] = tested on: HDR at a Cas9 cut site in MET in HEK293 cells; assay: HDR (6 nt insert) at MET measured by EcoR1 cleavage; type: cell-based; details: Alt-R HDR donor oligo (small insert), CM1 […], IDT-E 1 μM for 24 hours
Excerpt: as §1

[4] = tested on: HDR at HPRT1 in HEK293 cells that constitutively express HiFi Cas9 / Jurkat cells; assay: HDR at HPRT1 by EcoR1 cleavage assay, Ubv delivered as expression plasmid; type: cell-based; details: 154 ng plasmid encoding His-tagged Ubv, versus LbCas12a crRNA plasmid negative control
Experimental: Error bars indicate the standard deviation from two replicates.
In order to test if CM1 is effective at increasing HDR rates when delivered in other forms, plasmid or mRNA encoding CM1 was introduced into cells and the effects on HDR rates were analyzed. […] After 72 hours, genomic DNA was extracted using QuickExtract (Lucigen) and editing was analyzed by PCR amplification of the HPRT1 target site followed by EcoR1 restriction enzyme digestion. Digested product was run on a Fragment Analyzer (AATI).

[5] = tested on: HDR at HPRT1 in HEK293 cells; assay: HDR at HPRT1 by EcoR1 cleavage assay, tag-free versus His-tagged CM1 protein; type: cell-based; details: HEK293, HPRT1, 50 μM to […] ubiquitin variant
Experimental: Data is shown for two biological replicates with lines connecting the means. The dashed line indicates the level of EcoR1 cleavage when no enhancer is used (n=3, standard deviation <2%).
A tag-free version of CM1 (CM1tf, SEQ ID NO:482) was compared with the His6-tagged version of CM1 (SEQ ID NO:241) for their ability to enhance HDR in HEK293 cells as has been described in previous examples. Briefly, 2 uM Cas9 RNP targeting a site in HPRT1 and 2 uM ssDNA donor containing 40 bp homology arms flanking a 6 bp EcoR1 cut site insert sequence were delivered into HEK293 cells with varying amounts of CM1tf (CM1tf, SEQ ID NO:482) or His-tagged CM1 (CM1; SEQ ID NO:241) using Lonza nucleofection. Genomic DNA was isolated after 48 hours, and editing was measured using an EcoR1 cleavage assay.

[6] = target: T1, fragment of 53BP1 (a.a. 1221-1718) (Homo sapiens, UniProt Q12888); assay: BACTH two-hybrid pooled screen in E. coli, FACS sorting of GFP positive cells and NGS enrichment of i53 amino acid changes; type: cell-based
T1 construct: a fragment of 53BP1 (a.a. 1221-1718); expressed in transfected cells; host or cells: E. coli DHM1
T1 sequence (Q12888 1221-1718): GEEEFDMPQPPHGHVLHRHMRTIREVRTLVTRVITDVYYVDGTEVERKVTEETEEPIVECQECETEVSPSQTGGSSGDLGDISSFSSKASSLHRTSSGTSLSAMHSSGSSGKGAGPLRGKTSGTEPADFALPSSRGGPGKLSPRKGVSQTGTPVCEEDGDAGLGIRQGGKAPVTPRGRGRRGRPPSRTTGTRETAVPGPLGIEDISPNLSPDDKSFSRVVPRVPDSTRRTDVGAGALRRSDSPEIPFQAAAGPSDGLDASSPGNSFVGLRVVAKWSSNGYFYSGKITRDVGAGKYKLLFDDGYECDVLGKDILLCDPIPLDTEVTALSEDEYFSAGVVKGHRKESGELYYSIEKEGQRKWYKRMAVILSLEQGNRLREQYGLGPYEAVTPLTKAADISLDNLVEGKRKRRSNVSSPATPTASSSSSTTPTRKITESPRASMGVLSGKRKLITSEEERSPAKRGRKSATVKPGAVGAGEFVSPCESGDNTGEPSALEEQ
Excerpt: (§2) In order to identify mutations that improve the affinity of i53 for 53BP1, the bacterial adenylate cyclase two-hybrid system (BACTH system) was used to screen for interaction between the two proteins. This method makes use of a B. pertussis calmodulin-dependent adenylate cyclase toxin. The catalytic domain of the toxin can be separated into two fragments (T18 and T25) that are able to associate in the presence of calmodulin but have minimal activity in its absence. If bait and prey proteins fused to T18 and T25 interact, then the catalytic activity is restored and cAMP is produced. In E. coli, cAMP binds to catabolite activator protein (CAP) that acts as a transcriptional activator for several genes. By expressing these fusion proteins in an E. coli strain that lacks endogenous adenylate cyclase and naturally lacks calmodulin, cAMP regulated protein expression can be used as a readout of bait-prey interaction. We engineered the screen so that eGFP will be expressed under the control of a cAMP-regulated promoter. The coding sequence for a fragment of 53BP1 (a.a. 1221-1718) containing the i53 interacting regions and i53 were cloned into T18 and T25 adenylate cyclase expression plasmids such that fusion proteins of each would be expressed. If a Ubv interacts with 53BP1, the T18 and T25 fragments will be brought together, adenylate cyclase activity will be restored, cAMP will be produced, and some portion of the bacterial population will be GFP positive.
A plasmid library was made consisting of Ubv-adenylate cyclase fragment fusion protein plasmids that had on average a single codon within the i53 coding region exchanged for a random NNK codon. Plasmids were transformed into DHM1 cells that lack endogenous adenylate cyclase and contain the plasmid for expression of the 53BP1 fragment fused to one of the adenylate cyclase fragments. Expression of eGFP was used as a readout of bait-prey interaction using fluorescence activated cell sorting (FACS) to sort for GFP positive bacteria. Plasmid DNA was isolated from both the sorted GFP positive bacteria (Positive) and from the original pre-sort population (Input) and was sequenced using NGS. Counts were merged for mutations that result in the same amino acid change using Enrich2 [25]. Enrichment was calculated as enrichment=log 2((read count for an amino acid change in the positive population/read count for an amino acid change in the input)/(synonymous change read count in the positive population/synonymous change read count in the input)). […] For each experiment, DHM1 cells were transformed with the Ubv fusion protein plasmid library in two separate replicates using a gene pulser (Bio-Rad). The i53-adenylate cyclase fragment fusion protein (published i53 peptide, SEQ ID NO:2) plasmid was also introduced separately as a control to estimate selection pressure. Cells were then grown and sorted using FACS and GFP positive cells were collected. Two separate experiments were conducted on separate days using different levels of selection pressure resulting in a different percent GFP positive for the i53 population (i.e. for cells that express published i53 peptide (SEQ ID NO:2) fused to one of the adenylate cyclase fragments).
(§3) There was a high degree of correlation between the two experiments and between replicates (FIG. 2). From these screens, about 230 amino acid changes were identified for which the average enrichment was positive for at least one of the experiments (Table 1). […] To validate that the amino acid changes identified from the pooled screen are reproducible on an individual basis, 24 amino acid changes identified from this screen were introduced individually into the i53 fusion protein plasmid and tested by flow cytometry for their effect on the percent positive population relative to i53 (FIG. 3). There was a strong correlation between the enrichment measured from the pooled screen and the percent reporter positive cells when mutations were screened individually.

[7] = target: T1, fragment of 53BP1 (a.a. 1221-1718); assay: Individual two-hybrid screen of amino acid changes, percent GFP (reporter) positive cells by flow cytometry; type: cell-based
Excerpt: as §2, §3

[8] = tested on: 53BP1 foci; details: introduced into cells; cited from earlier work
[9] = tested on: HDR; details: plasmid delivery, adeno-associated virus mediated gene delivery, or delivery of mRNA; cited from earlier work

53BP1 (amino acids 1484-1603) fused to MBP, sequence (Q12888 1484-1603, looked up): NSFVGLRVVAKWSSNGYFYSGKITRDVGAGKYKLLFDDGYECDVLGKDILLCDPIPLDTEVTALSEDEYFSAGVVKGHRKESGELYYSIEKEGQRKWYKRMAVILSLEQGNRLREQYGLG

| Substance | Response ([1]; 53BP1 0.0102 μM) | Response ([1]; 53BP1 0.0511 μM) | Response ([1]; 53BP1 0.1022 μM) | Response ([1]; 53BP1 0.2045 μM) | Response ([1]; 53BP1 1.02 μM) | Response ([1]; 53BP1 5.11 μM) | Response ([1]; 53BP1 20.5 μM) | rate of HDR [2] | rate of HDR [3] | HDR rate [4] | ability to enhance HDR [5] | i53 percent positive ([6]; experiment one) | GFP positive population ([6]; high selection pressure experiment) [%] | GFP positive population ([6]; low selection pressure experiment) [%] | Percent GFP Positive Rep 1 ([7]; replicate 1, amino acid change in i53 fusion protein plasmid) [%] | Percent GFP Positive Rep 2 ([7]; replicate 2) [%] | Percent GFP Positive Rep 3 ([7]; replicate 3) [%] | formation of ionizing radiation induced 53BP1 foci [8] | rates of HDR [9] |
| --- | --- | --- | --- | --- | --- | --- | --- | --- | --- | --- | --- | --- | --- | --- | --- | --- | --- | --- | --- |
| CM1: i53 with K6R, T7M, T12M, T14E, K33H, A46Q, S65P, L67K, H68M; N-terminal His tag | 0.4913 | 1.3298 | 1.6825 | 2.0092 | 2.5002 | 2.738 | 2.9739 | increase rates of HDR | increase rates of HDR | larger increase in HDR rate | – | – | – | – | – | – | – | – | – |
| CM1tf: tag-free version of CM1 | – | – | – | – | – | – | – | – | – | – | equivalent to that of His-tagged CM1 | – | – | – | – | – | – | – | – |
| i53: published ubiquitin variant inhibitor of 53BP1 (Canny et al.); tested with N-terminal His tag and linker (SEQ ID NO:3) [reference compound] | 0.0176 | 0.0537 | 0.104 | 0.1877 | 0.6247 | 1.2658 | 1.954 | – | – | increase in HDR rates | – | approximately 30% | ~3 | ~17 | 9 | 7.6 | 11.8 | inhibited the formation ionizing radiation induced 53BP1 foci | improve the rates of HDR |
| CM7: i53 with K6R, K33H, A46Q, S65P; N-terminal His tag | 0.099 | 0.3578 | 0.5715 | 0.8611 | 1.5108 | 2.0067 | 2.4923 | – | – | – | – | – | – | – | – | – | – | – | – |
